Consider 4 molecules from US20210171654A1.

Broadly, the Kd is the concentration at which binding is half-saturated. Read a high Kd as lower affinity.

Assay [1] has as its target Human SIRPa-His fusion protein (extracellular domain of human SIRPa fused to His-tag) (human) (UniProt P78324). The experiment in a line: Biacore (surface plasmon resonance), antibody captured, monomeric human SIRPa-His as analyte. (Surface plasmon resonance follows binding to a sensor surface in real time, without labels.)
Assay [2] shares this target. Briefly: SPR, Biacore 3000 at 25 C, antibody captured by goat anti-human antibody, SIRPa-His as analyte.

B1: 1H9 (parental mouse anti-human SIRPa monoclonal antibody) (antibody, V domains shown)
VH: QVQLQQPGAERVKPGASVKMSCKASGYTFTSYWITWVKQRPGQGLEWIGDIYPGSGSTNHIEKFKSKATLTVDTSSNTAYMQLSRLTSEDSAVYYCATGYGSSYGYFDYWGQGTTLTVSS
VL: DIQMTQSPASLSASVGETVTITCRASENIYSYLAWYQQKQGKSPQLLVYTAKTLAEGVPSRFSGSGSGTQFSLKINSLQPEDFGNYYCQHQYGPPFTFGSGTRLVIK
In the case of B1, the Kd in assay [1] worked out at 2.06 nM.

B2: 3C2 (parental mouse anti-human SIRPa monoclonal antibody) (antibody, V domains shown)
VH: QVQLQQPGAELVRPGSSVKLSCKASGYTFTSYWMHWVKQRPIQGLEWIGNIDPSDSDTHYNQKFKDKATLTVDKSSSTAYMQLSSLTSEDSAVYYCARGYSKYYAMDYWGQGTSVTVSS
VL: DVLMTQTPLSLSVSLGDQASISCRSSQSIVHSYGNTYLEWYLQKPGQSPKLLIYKVSNRFSGVPDRFSGSGSGTDFTLKISRVEAEDLGVYYCFQGSHVPYTFGGGTKLEIK
Regarding B2, the Kd in assay [1] worked out at 5.58 nM.

B3: Humanized 1H9 (antibody, human IgG1, kappa, N297A, V domains shown)
VH: QVQLVQSGAEVKKPGASVKVSCKASGYTFTSYWITWVKQAPGQGLEWIGDIYPGSGSTNHIEKFKSKATLTVDTSISTAYMELSRLRSDDTAVYYCATGYGSSYGYFDYWGQGTLVTVSS
VL: DIQMTQSPSSLSASVGDRVTITCRASENIYSYLAWYQQKPGKAPKLLIYTAKTLAEGVPSRFSGSGSGTDFTLTISSLQPEDFATYYCQHQYGPPFTFGQGTKLEIKR
In assay [2], B3 gave a Kd of 1.15 nM.

B4: Humanized 3C2 (antibody, human IgG1, kappa, N297A, V domains shown)
VH: QVQLVQSGAEVKKPGASVKVSCKASGYTFTSYWMHWVRQAPGQGLEWMGNIDPSDSDTHYNQKFKDRVTMTRDTSTSTVYMELSSLRSEDTAVYYCARGYSKYYAMDYWGQGTLVTVSS
VL: DIVMTQTPLSLSVTPGQPASISCRSSQSIVHSYGNTYLEWYLQKPGQSPQLLIYKVSNRFSGVPDRFSGSGSGTDFTLKISRVEAEDVGVYYCFQGSHVPYTFGQGTKLEIKR
B4: the Kd in assay [2] is 5.53 nM.
